Assay results published in article PMC10397247.

Key:
4H2865-AA = biological target: T1, 4H2865-AA; experiment: two-hybrid library CCmax;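 also: natural log of median RNA to DNA barcode read ratio; higher means stronger binding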
T1 chain: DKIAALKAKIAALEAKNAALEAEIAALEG

4H3009-AA = biological target: T2, 4H3009-AA; experiment: two-hybrid library CCmax; details: mean of both orientations;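 also: natural log of median RNA to DNA barcode read ratio; higher means stronger binding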
T2 chain: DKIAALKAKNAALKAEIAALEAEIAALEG

4H3016-AA = biological target: T3, 4H3016-AA; experiment: two-hybrid library CCmax; details: mean of both orientations;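 also: natural log of median RNA to DNA barcode read ratio; higher means stronger binding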
T3 chain: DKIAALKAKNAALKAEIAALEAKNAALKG

4H310-AA = biological target: T4, 4H310-AA; experiment: two-hybrid library CCmax; details: mean of both orientations;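 also: natural log of median RNA to DNA barcode read ratio; higher means stronger binding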
T4 chain: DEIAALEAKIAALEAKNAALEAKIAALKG

4H3120-AA = biological target: T5, 4H3120-AA; experiment: two-hybrid library CCmax; details: mean of both orientations;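 also: natural log of median RNA to DNA barcode read ratio; higher means stronger binding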
T5 chain: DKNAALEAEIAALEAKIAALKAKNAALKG

4H3130-AA = biological target: T6, 4H3130-AA; experiment: two-hybrid library CCmax; details: mean of both orientations;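 also: natural log of median RNA to DNA barcode read ratio; higher means stronger binding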
T6 chain: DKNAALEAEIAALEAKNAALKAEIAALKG

4H3165-AA = biological target: T7, 4H3165-AA; experiment: two-hybrid library CCmax; details: mean of both orientations
T7 chain: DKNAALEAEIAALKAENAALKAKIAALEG

4H3381-AA = biological target: T8, 4H3381-AA; experiment: two-hybrid library CCmax; details: mean of both orientations
T8 chain: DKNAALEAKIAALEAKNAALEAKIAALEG

4H3395-AA = biological target: T9, 4H3395-AA; experiment: two-hybrid library CCmax; details: mean of both orientations
T9 chain: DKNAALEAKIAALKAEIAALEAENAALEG

4H3410-AA = biological target: T10, 4H3410-AA; experiment: two-hybrid library CCmax; details: mean of both orientations
T10 chain: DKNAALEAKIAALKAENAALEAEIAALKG

4H3590-AA = biological target: T11, 4H3590-AA; experiment: two-hybrid library CCmax; details: mean of both orientations
T11 chain: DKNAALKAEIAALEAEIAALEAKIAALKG

4H3697-AA = biological target: T12, 4H3697-AA; experiment: two-hybrid library CCmax; details: mean of both orientations
T12 chain: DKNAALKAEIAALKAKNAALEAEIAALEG

4H3753-AA = biological target: T13, 4H3753-AA; experiment: two-hybrid library CCmax; details: mean of both orientations
T13 chain: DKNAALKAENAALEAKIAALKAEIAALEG

4H3865-AA = biological target: T14, 4H3865-AA; experiment: two-hybrid library CCmax; details: mean of both orientations
T14 chain: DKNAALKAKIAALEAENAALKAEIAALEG

4H458-AA = biological target: T15, 4H458-AA; experiment: two-hybrid library CCmax; details: mean of both orientations
T15 chain: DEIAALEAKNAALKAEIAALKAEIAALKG

4H485-AA = biological target: T16, 4H485-AA; experiment: two-hybrid library CCmax; details: mean of both orientations
T16 chain: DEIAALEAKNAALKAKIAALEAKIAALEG

4H536-AA = biological target: T17, 4H536-AA; experiment: two-hybrid library CCmax; details: mean of both orientations
T17 chain: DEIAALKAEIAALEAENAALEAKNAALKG

4H570-AA = biological target: T18, 4H570-AA; experiment: two-hybrid library CCmax; details: mean of both orientations
T18 chain: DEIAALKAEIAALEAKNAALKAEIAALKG

4H629-AA = biological target: T19, 4H629-AA; experiment: two-hybrid library CCmax; details: mean of both orientations
T19 chain: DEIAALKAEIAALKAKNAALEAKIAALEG

4H710-AA = biological target: T20, 4H710-AA; experiment: two-hybrid library CCmax; details: mean of both orientations
T20 chain: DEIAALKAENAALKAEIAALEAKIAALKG

4H745-AA = biological target: T21, 4H745-AA; experiment: two-hybrid library CCmax; details: mean of both orientations
T21 chain: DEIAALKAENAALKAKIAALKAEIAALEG

4H797-AA = biological target: T22, 4H797-AA; experiment: two-hybrid library CCmax; details: mean of both orientations
T22 chain: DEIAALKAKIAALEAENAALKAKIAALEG

4H850-AA = biological target: T23, 4H850-AA; experiment: two-hybrid library CCmax; details: mean of both orientations
T23 chain: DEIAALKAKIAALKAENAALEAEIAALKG

4H891-AA = biological target: T24, 4H891-AA; experiment: two-hybrid library CCmax; details: mean of both orientations
T24 chain: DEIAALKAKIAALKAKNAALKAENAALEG

4H909-AA = biological target: T25, 4H909-AA; experiment: two-hybrid library CCmax; details: mean of both orientations
T25 chain: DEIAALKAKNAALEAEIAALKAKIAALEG

4H930-AA = biological target: T26, 4H930-AA; experiment: two-hybrid library CCmax; details: mean of both orientations
T26 chain: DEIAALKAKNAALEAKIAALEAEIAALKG

4H94-AA = biological target: T27, 4H94-AA; experiment: two-hybrid library CCmax; details: mean of both orientations
T27 chain: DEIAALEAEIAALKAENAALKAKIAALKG

4H568-bH = biological target: T28, 4H568-bH; experiment: two-hybrid library CCNG1
T28 chain: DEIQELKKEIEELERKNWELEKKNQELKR

4H607-bH = biological target: T29, 4H607-bH; experiment: two-hybrid library CCNG1
T29 chain: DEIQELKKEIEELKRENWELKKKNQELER

4H687-bH = biological target: T30, 4H687-bH; experiment: two-hybrid library CCNG1
T30 chain: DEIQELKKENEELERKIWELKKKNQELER

4H717-bH = biological target: T31, 4H717-bH; experiment: two-hybrid library CCNG1
T31 chain: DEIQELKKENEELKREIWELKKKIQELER

4H72-bH = biological target: T32, 4H72-bH; experiment: two-hybrid library CCNG1
T32 chain: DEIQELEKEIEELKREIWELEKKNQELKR

4H754-bH = biological target: T33, 4H754-bH; experiment: two-hybrid library CCNG1
T33 chain: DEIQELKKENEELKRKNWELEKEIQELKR

4H797-bH = biological target: T34, 4H797-bH; experiment: two-hybrid library CCNG1
T34 chain: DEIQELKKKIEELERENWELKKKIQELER

4H883-bH = biological target: T35, 4H883-bH; experiment: two-hybrid library CCNG1
T35 chain: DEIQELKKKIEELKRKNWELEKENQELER

4H908-bH = biological target: T36, 4H908-bH; experiment: two-hybrid library CCNG1
T36 chain: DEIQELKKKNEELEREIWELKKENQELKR

4H918-bH = biological target: T37, 4H918-bH; experiment: two-hybrid library CCNG1
T37 chain: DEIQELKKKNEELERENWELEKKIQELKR

4H953-bH = biological target: T38, 4H953-bH; experiment: two-hybrid library CCNG1
T38 chain: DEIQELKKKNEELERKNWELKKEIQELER

4H967-bH = biological target: T39, 4H967-bH; experiment: two-hybrid library CCNG1
T39 chain: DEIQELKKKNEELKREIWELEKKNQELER

4H949-bH = biological target: T40, 4H949-bH; experiment: two-hybrid library CCNG1
T40 chain: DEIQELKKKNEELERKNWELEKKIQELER

4H662-AA = biological target: T41, 4H662-AA; experiment: two-hybrid library CCmax
T41 chain: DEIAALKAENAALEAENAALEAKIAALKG

APC7524-AA = biological target: T42, APC7524-AA; experiment: two-hybrid library CCmax
T42 chain: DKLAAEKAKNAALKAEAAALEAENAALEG

APC8401-AA = biological target: T43, APC8401-AA; experiment: two-hybrid library CCmax; details: mean of both orientations
T43 chain: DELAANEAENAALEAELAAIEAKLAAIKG

APC8516-AA = biological target: T44, APC8516-AA; experiment: two-hybrid library CCmax; details: mean of both orientations
T44 chain: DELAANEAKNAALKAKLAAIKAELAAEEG

APC9141-AA = biological target: T45, APC9141-AA; experiment: two-hybrid library CCmax; details: mean of both orientations
T45 chain: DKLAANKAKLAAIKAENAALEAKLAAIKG

APC9182-AA = biological target: T46, APC9182-AA; experiment: two-hybrid library CCmax; details: mean of both orientations
T46 chain: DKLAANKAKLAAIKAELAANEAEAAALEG

APC9291-AA = biological target: T47, APC9291-AA; experiment: two-hybrid library CCmax; details: mean of both orientations
T47 chain: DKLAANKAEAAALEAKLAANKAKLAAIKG

APC9806-AA = biological target: T48, APC9806-AA; experiment: two-hybrid library CCmax; details: mean of both orientations
T48 chain: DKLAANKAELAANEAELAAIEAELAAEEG

Question: What does the source list for DKIAALKAKIAALEAKNAALEAEIAALEG [4H2865-AA]?
Answer: interaction score (4H2865-AA): 0.121; interaction score (4H3009-AA): 2.01; interaction score (4H3016-AA): -1.4; interaction score (4H310-AA): 1.7; interaction score (4H3120-AA): -0.983; interaction score (4H3130-AA): -0.487; interaction score (4H3165-AA): -1.47; interaction score (4H3381-AA): -0.233; interaction score (4H3395-AA): -1.43; interaction score (4H3410-AA): -0.858; interaction score (4H3590-AA): -0.177; interaction score (4H3697-AA): -1.95; interaction score (4H3753-AA): -0.663; interaction score (4H3865-AA): -1.3; interaction score (4H458-AA): -0.6; interaction score (4H485-AA): -1.28; interaction score (4H536-AA): 1.01; interaction score (4H570-AA): 1.01; interaction score (4H629-AA): -0.872; interaction score (4H710-AA): -0.988; interaction score (4H745-AA): 0.436; interaction score (4H797-AA): -0.194; interaction score (4H850-AA): 0.586; interaction score (4H891-AA): -1.8; interaction score (4H909-AA): -0.808; interaction score (4H930-AA): -1.5; interaction score (4H94-AA): 1.39

Question: What does the source list for DEIQELKKEIEELERKNWELEKKNQELKR [4H568-bH]?
Answer: interaction score (4H568-bH): -1.25; interaction score (4H607-bH): 0.0933; interaction score (4H687-bH): -0.423; interaction score (4H717-bH): 0.643; interaction score (4H72-bH): -1.52; interaction score (4H754-bH): 0.644; interaction score (4H797-bH): -0.219; interaction score (4H883-bH): 1; interaction score (4H908-bH): 0.115; interaction score (4H918-bH): -0.673; interaction score (4H953-bH): -1.24; interaction score (4H967-bH): 0.179

Question: How did the interaction score (4H949-bH) turn out when DEIQELKKKNEELERKNWELEKKIQELER [4H949-bH] was run?
Answer: 0.634

Question: DEIAALKAENAALEAENAALEAKIAALKG [4H662-AA] was tested. Which interaction score (4H662-AA) did it give?
Answer: 0.217

Question: DKLAAEKAKNAALKAEAAALEAENAALEG [APC7524-AA] was tested. Which interaction score (APC7524-AA) did it give?
Answer: -1.65

Question: What about the interaction score (APC8401-AA) of the same binder?
Answer: -1.27

Question: What about the interaction score (APC8516-AA) of the same binder?
Answer: -1.83

Question: And the interaction score (APC9141-AA)?
Answer: -1.69

Question: And the interaction score (APC9182-AA)?
Answer: -1.85

Question: What about the interaction score (APC9291-AA) of the same binder?
Answer: -1.72

Question: And the interaction score (APC9806-AA)?
Answer: -1.98
